These are literature values, as cited in publication PMC12114883.

The target in the series is CLV1 (Arabidopsis thaliana) (UniProt Q9SYQ8).
UniProt Q9SYQ8, sequence (Q9SYQ8 25-638): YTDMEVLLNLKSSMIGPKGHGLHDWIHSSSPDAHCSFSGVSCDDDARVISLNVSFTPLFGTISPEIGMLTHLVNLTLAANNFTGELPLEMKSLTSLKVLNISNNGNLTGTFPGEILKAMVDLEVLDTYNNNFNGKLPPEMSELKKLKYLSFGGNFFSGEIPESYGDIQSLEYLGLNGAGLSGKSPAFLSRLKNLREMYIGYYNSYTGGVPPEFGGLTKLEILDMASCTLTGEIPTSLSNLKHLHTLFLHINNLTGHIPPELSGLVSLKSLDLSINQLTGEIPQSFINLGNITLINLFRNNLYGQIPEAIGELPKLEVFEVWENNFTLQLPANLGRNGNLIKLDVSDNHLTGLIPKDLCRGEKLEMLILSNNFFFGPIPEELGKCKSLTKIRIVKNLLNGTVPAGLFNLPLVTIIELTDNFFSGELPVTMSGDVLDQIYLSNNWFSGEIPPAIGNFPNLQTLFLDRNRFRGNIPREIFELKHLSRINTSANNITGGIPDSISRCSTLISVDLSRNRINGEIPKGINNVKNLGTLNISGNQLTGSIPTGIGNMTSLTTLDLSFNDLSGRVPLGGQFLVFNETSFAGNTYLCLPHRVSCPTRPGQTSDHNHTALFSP

CLV3 (from UniProt Q9XF04): the Kd (in general, the free concentration of one partner at which half of the binding sites on the other are occupied at equilibrium, for simple one-to-one binding) is 17.5 nM.
